According to patent US11440969B2, “Use of human epididymis protein 4 (HE4) for assessing responsiveness of MUC 16-positive cancer treatment” (Genentech, Inc., priority 2016, dated 2022):
“Also recorded” adds a separate entry of the source.

Experiments:
[1] = Serum anti-therapeutic antibody (ATA) bridging antibody ELISA; assay type: in vivo, human; settings: patients; minimal impact on the exposure
Method: Serum anti-therapeutic antibody (ATA) samples were collected from all treated patients and were analyzed using a validated bridging antibody ELISA. Positive antibody responses were further characterized by competitive binding to determine if the response was primarily directed against the antibody or the linker-drug portion of the ADC.

[2] = tested on: platinum-resistant ovarian cancer; test: Clinical activity of DMUC5754A (RECIST v1.1) in ovarian cancer patients; assay type: in vivo, human
Method: (§1) This multicenter, open-label, dose-escalation study was designed to identify the recommended Phase II dose (RP2D) of DMUC5754A in patients with platinum-resistant OC or unresectable pancreatic cancer. In the single-agent dose escalation stage utilizing a 3+3 enrollment scheme, patients were given intravenous DMUC5754A (Genentech Inc.) 0.3-3.2 mg/kg every 3 weeks (q3w) to evaluate the safety, tolerability, and pharmacokinetics of DMUC5754A. Following determination of the maximum tolerated dose (MTD), dose-expansion cohorts were enrolled at the RP2D of 2.4 mg/kg to further characterize the safety and preliminary clinical efficacy of DMUC5754A.
Dosing on a weekly (qlw) schedule was also evaluated at the RP2D, employing a 3+3 design to determine the MTD of weekly dosing, followed by a cohort expansion to further characterize the safety and activity of q1w dosing.
OC patients had advanced, epithelial ovarian, primary peritoneal, or fallopian tube cancer that progressed or relapsed within 6 months after the most recent treatment with a platinum-containing chemotherapy regimen and for which no standard therapy exists. […] Progression or relapse from prior platinum-based chemotherapy was documented by RECIST v1.1 or Gynecologic Cancer Intergroup (GCIG) CA125 progression criteria (Vergote et al., 2000). Patients were allowed ≤2 prior chemotherapy regimens.
Objective response rate was estimated only for patients with disease that was measurable by RECIST guidelines. Objective response is defined as a complete or partial response, as determined by investigator assessment and confirmed by repeat assessments ≥4 weeks after initial documentation. Duration of objective response was defined as the time from the initial complete or partial response to the time of disease progression or death.

[3] = tested on: unresectable pancreatic cancer; test: Clinical activity of DMUC5754A (RECIST) in pancreatic cancer patients; assay type: in vivo, human; settings: PC patients, 2.4 mg/kg q3w, 10 patients treated
Method: as §1
PC patients had histologic documentation of incurable, locally advanced, or metastatic disease for which no standard therapy exists, consisting of unresectable pancreatic ductal adenocarcinoma (i.e., patients with locally advanced or metastatic disease who are not considered eligible for surgical resection with curative intent), including recurrence of previously-resected disease considered unresectable with curative intent. […]
Objective response rate was estimated only for patients with disease that was measurable by RECIST guidelines. Objective response is defined as a complete or partial response, as determined by investigator assessment and confirmed by repeat assessments ≥4 weeks after initial documentation. […]

[4] = tested on: MUC16 expressing mouse ovarian and pancreatic cancer xenograft models; test: Mouse xenograft anti-tumor activity; assay type: in vivo; settings: single agent

B1: DMUC5754A: antibody-drug conjugate: humanized IgG1 anti-MUC16 monoclonal antibody and MMAE, linked through protease labile linker maleimidocaproyl-valine-citrulline-p-aminobenzyloxycarbonyl (conjugate, chains of the INN, looked up)
VH: EVQLVESGGGLVQPGGSLRLSCAASGYSITNDYAWNWVRQAPGKGLEWVGYISYSGYTTYNPSLKSRFTISRDTSKNTLYLQMNSLRAEDTAVYYCARWTSGLDYWGQGTLVTVSS
VL: DIQMTQSPSSLSASVGDRVTITCKASDLIHNWLAWYQQKPGKAPKLLIYGATSLETGVPSRFSGSGSGTDFTLTISSLQPEDFATYYCQQYWTTPFTFGQGTKVEIK
modifications: MMAE via mc-vc-PABC linker
Q: For B1, which immunogenicity rate [1] is on record?
A: 14.1%

Q: And the “Best response: Complete response, patients” value ([2]; 0.8 mg/kg q1w (N = 3))?
A: 0

Q: What about the “Best response: Partial response, patients” value ([2]; 0.8 mg/kg q1w (N = 3)) of the same molecule?
A: 1

Q: And the “Best response: Progressive disease, patients” value ([2]; 0.8 mg/kg q1w (N = 3))?
A: 0

Q: And the “Best response: Stable disease, patients” value ([2]; 0.8 mg/kg q1w (N = 3))?
A: 2

Q: And the “Best response: Unable to evaluate, patients” value (“Best response: Unable” below) ([2]; 0.8 mg/kg q1w (N = 3))?
A: 0

Q: And the “Duration of response, Median” value ([2]; 0.8 mg/kg q1w (N = 3))?
A: 3.0 months

Q: And the “Duration of response, Range” value ([2]; 0.8 mg/kg q1w (N = 3))?
A: 3.0-3.0 months

Q: And the “unconfirmed partial responses, patients” value ([2]; 1.1 mg/kg q1w)?
A: 1

Q: What about the “Best response: Complete response, patients” value ([2]; 1.1 mg/kg q1w (N = 7)) of the same molecule?
A: 0

Q: And the “Best response: Partial response, patients” value ([2]; 1.1 mg/kg q1w (N = 7))?
A: 1

Q: And the “Best response: Progressive disease, patients” value ([2]; 1.1 mg/kg q1w (N = 7))?
A: 3

Q: What about the “Best response: Stable disease, patients” value ([2]; 1.1 mg/kg q1w (N = 7)) of the same molecule?
A: 3

Q: And the “Best response: Unable” value ([2]; 1.1 mg/kg q1w (N = 7))?
A: 0

Q: What about the “Duration of response, Median” value ([2]; 1.1 mg/kg q1w (N = 7)) of the same molecule?
A: 6.8 months

Q: What about the “Duration of response, Range” value ([2]; 1.1 mg/kg q1w (N = 7)) of the same molecule?
A: 6.8-6.8 months

Q: What about the “minor responses, patients” value ([2]; 1.2 mg/kg q3w) of the same molecule?
A: 1

Q: And the “minor responses, patients” value ([2]; 1.4 mg/kg q1w)?
A: 1

Q: What about the “Best response: Complete response, patients” value ([2]; 1.4 mg/kg q1w (N = 6)) of the same molecule?
A: 0

Q: And the “Best response: Partial response, patients” value ([2]; 1.4 mg/kg q1w (N = 6))?
A: 1

Q: And the “Best response: Progressive disease, patients” value ([2]; 1.4 mg/kg q1w (N = 6))?
A: 2

Q: And the “Best response: Stable disease, patients” value ([2]; 1.4 mg/kg q1w (N = 6))?
A: 2

Q: And the “Best response: Unable” value ([2]; 1.4 mg/kg q1w (N = 6))?
A: 1

Q: What about the “Duration of response, Median” value ([2]; 1.4 mg/kg q1w (N = 6)) of the same molecule?
A: 4.6 months

Q: And the “Duration of response, Range” value ([2]; 1.4 mg/kg q1w (N = 6))?
A: 4.6-4.6 months

Q: And the “minor responses, patients” value ([2]; 1.6 mg/kg q1w)?
A: 1

Q: And the “minor responses, patients” value ([2]; 2.4 mg/kg q3w)?
A: Two

Q: And the “unconfirmed partial responses, patients” value ([2]; 2.4 mg/kg q3w)?
A: 1

Q: What about the “Best response: Complete response, patients” value ([2]; 2.4 mg/kg q3w (N = 29)) of the same molecule?
A: 1

Q: And the “Best response: Partial response, patients” value ([2]; 2.4 mg/kg q3w (N = 29))?
A: 3

Q: What about the “Best response: Progressive disease, patients” value ([2]; 2.4 mg/kg q3w (N = 29)) of the same molecule?
A: 6

Q: What about the “Best response: Stable disease, patients” value ([2]; 2.4 mg/kg q3w (N = 29)) of the same molecule?
A: 17

Q: What about the “Best response: Unable” value ([2]; 2.4 mg/kg q3w (N = 29)) of the same molecule?
A: 2

Q: What about the “Duration of response, Median” value ([2]; 2.4 mg/kg q3w (N = 29)) of the same molecule?
A: 4.9 months

Q: What about the “Duration of response, Range” value ([2]; 2.4 mg/kg q3w (N = 29)) of the same molecule?
A: 3.0-11.3 months

Q: What about the “minor responses, patients” value ([2]; 3.2 mg/kg q3w) of the same molecule?
A: 1

Q: What about the “average length of time on the study” value ([2]; FIG. 4) of the same molecule?
A: 103 days

Q: What about the “decrease in SLD of target lesions” value ([2]; a patient at 3.2 mg/kg q3w, PD as overall status due to new lesions) of the same molecule?
A: > 30%

Q: And the “patients on the study ≥105 days” value ([2]; of the 29 patients at 2.4 mg/kg q3w)?
A: Sixteen

Q: And the “reduction (MRI), complete response” value ([2]; person, 2.4 mg/kg IV q3w, after two doses)?
A: 100%

Q: What about the “tumor response nadir, reduction” value ([2]; person, 2.4 mg/kg, after 8 doses) of the same molecule?
A: 88%

Q: What about the “reduction in 3 target lesions (CT), partial response” value ([2]; person, 2.4 mg/kg, after two doses) of the same molecule?
A: 37%

Q: What about the confirmed responses ([2]; q1w cohorts, at 0.8, 1.1, and 1.4 mg/kg levels) of the same molecule?
A: 3

Q: And the radiographic responses [3]?
A: No patients; also recorded: no radiologic responses

Q: What about the anti-tumor activity [4] of the same molecule?
A: potent and selective single agent anti-tumor activity
